Laboratory results from doi:10.1101/2021.08.09.455701 (bioRxiv, 2021).

Columns and labels:
[1] = biological target: RNase J (His-tagged, wild type) (Helicobacter pylori) (UniProt P56185); experiment: AUC
[2] = biological target: RNase J D185A (His-tagged) (Helicobacter pylori) (UniProt P56185); experiment: AUC
[3] = biological target: RNase J K649A (His-tagged) (Helicobacter pylori) (UniProt P56185); experiment: AUC
[4] = biological target: RNase J K649Q (His-tagged) (Helicobacter pylori) (UniProt P56185); experiment: AUC
crystal structure = biological target: the molecule itself; experiment: crystal structure

## RNase J (His-tagged, wild type) (from UniProt P56185 1-689) (enzyme)
[1]
  percent of the protein as dimer: 40%
  percent of the protein as monomer: 60%
  stoichiometry N: 2

## RNase J D185A (His-tagged) (from UniProt P56185 1-689) (enzyme)
[2]
  stoichiometry N: 2

## RNase J K649A (His-tagged) (from UniProt P56185 1-689) (enzyme)
[3]
  stoichiometry N: 2

## RNase J K649Q (His-tagged) (from UniProt P56185 1-689) (enzyme)
[4]
  stoichiometry N: 2

## RhpA (His-tagged) (from UniProt O25029 1-492) (enzyme)
[1]
  stoichiometry N: 1 RNase J:RhpA

B1: RNase J residues 139-691 (crystallised construct) (domain or fragment, H. pylori strain 26695, UniProt P56185 137-689, looked up)
chain: SKASVKITPLGGLGEIGGNMMVIETPKSAIVIDAGMSFPKEGLFGVDILIPDFSYLHQIKDKIAGIIITHAHEDHIGATPYLFKELQFPLYGTPLSLGLIGSKFDEHGLKKYRSYFKIVEKRCPISVGEFIIEWIHITHSIIDSSALAIQTKAGTIIHTGDFKIDHTPVDNLPTDLYRLAHYGEKGVMLLLSDSTNSHKSGTTPSESTIAPAFDTLFKEAQGRVIMSTFSSNIHRVYQAIQYGIKYNRKIAVIGRSMEKNLDIARELGYIHLPYQSFIEANEVAKYPDNEILIVTTGSQGETMSALYRMATDEHRHISIKPNDLVIISAKAIPGNEASVSAVLNFLIKKEAKVAYQEFDNIHVSGHAAQEEQKLMLRLIKPKFFLPVHGEYNHVARHKQTAISCGVPEKNIYLMEDGDQVEVGPAFIKKVGTIKSGKSYVDNQSNLSIDTSIVQQREEVASAGVFVATIFVNKNKQALLESSQFSSLGLVGFKDEKPLIKEIQGGLEVLLKSSNAEILNNPKKLEDHTRNFIRKALFKKFRKYPAIICHAHSF
Crystal structure
  binding result: binds
